The record followed here is patent US20230025039.

For series [1], the system named is Cas13b-t1-REPAIR R and H to A in both HEPN domains (numbering not given) (Atlantic deep subsurface metagenome). Nature of the series: cell_activity. The following applies: non-targeting control.
In series [2] the test system is Cas13b-t3-REPAIR R and H to A in both HEPN domains (numbering not given) (Planctomycetes bacterium isolate B28_G16). Nature of the series: cell_activity. The following applies: non-targeting control.

In turn, “non-targeting editing gRNA (b-t1) ; Cypridina luciferase W85X mRNA” registered an activity (normalized RLU) in series [1] of 0.00795. “non-targeting editing gRNA (b-t3) ; Cypridina luciferase W85X mRNA” displayed an activity (normalized RLU) in series [2] of 0.00368.
